From PMC9523886 come the findings set out here.

Read-outs that look alike come from different tables or passages of the source.

A word on the Kd: it is the free concentration of one partner at which half of the binding sites on the other are occupied at equilibrium, for simple one-to-one binding. Low values mean a tighter complex, high ones a looser complex.

Common to all, as to assay: FCCS
Assay [1] deals with GFP-DscIA (Discoidin I, paralog A, fused with GFP) (D. discoideum).
Assay [2] has the same target. The source holds these as a separate data set.
For assay [3] the target is unchanged. The source holds these as a separate data set.

Take “mCh-MyoII (mCherry-tagged Myosin II) (from UniProt P08799 1-2116) (natural protein)”: the values for the Kd in assay [1], in assay [2] and in assay [3] were 2800 nM, 2900 nM and 1900 nM, respectively.
